Target: the molecule itself
Test: SEC + other: dynamic light scattering

B1: AlbB expressed alone (natural protein, Streptomyces noursei)
chain: MNPGETVLPPQLREEIALLAVYLLSSGRGLLEEPADYGIYRCTDGARRALQLLDEHGGSTARLTAVRERLDEVMFAPMGEDRDMGAILDDLCRQMADALPEIETP
With B1 the “stoichiometry N” value was 2.

From article PMC10557607 (bioRxiv, 2023)
